Consider three molecules from PMC10214526 (2023).

Where no end group is shown, it is not given here.

In assay [1] the target is GABARAP (UniProt O95166 2-116). Put plainly: FP.
In assay [2] the target is LC3A (UniProt Q9H492 1-121). Put plainly: FP.

Sequence of GABARAP (O95166 2-116): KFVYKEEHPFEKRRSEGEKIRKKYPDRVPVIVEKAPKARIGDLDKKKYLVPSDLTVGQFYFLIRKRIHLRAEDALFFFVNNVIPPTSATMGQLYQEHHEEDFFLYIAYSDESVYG

B1: fluorescein-modified linear LIR^ATG3 peptide (peptide)
chain: LEAIIEEDDGDGGWVDTYH
modifications: also: fluorescein, position not given here
As usually defined, the Kd is the concentration at which binding is half-saturated. The low end stands for tighter binding, the high end for weaker binding. As for B1, the dissociation constant Kd amounted to 1200 nM in assay [1] and 2600 nM in assay [2].

B2: fluorescein-modified cyclized LIR^ATG3 peptide (peptide)
chain: LEAIIEEDDGDGGWVDTYHCGGGK
modifications: also: fluorescein, position not given here, cyclized, places not given here
Regarding B2, the Kd is 150 nM in assay [1] and 410 nM in assay [2].

B3: fluorescein-modified truncated (103–111) LIR^ATG3 peptide (peptide)
peptide: GDGGWVDTY
modifications: also: fluorescein, position not given here
With B3, the Kd in assay [1] was over 10000 nM; in assay [2] it was over 15000 nM.
